The text below walks through data of the supplement of paper PMC7877785.

This data set can be described thus: self-splicing fitness, log relative to wild type (ln ratio); higher = more splicing; Tetrahymena group I intron in knt gene, E. coli kanamycin selection, DiMSum; sequences stand for … in CUCUCU…GGAGGGAAAAGUUAUCAGGCAUGCACCUGGUAGCUAGUCUUUAAACCAAUAGAUUGCAUCGGUUUAAAAGGCAAGACCGUCAAAUUGCGGGAAAGGGGUCAACAGCCGUUCAGUACCAAGUCUCAGGGGAAACUUUGAGAUGGCCUUGCAAAGGGUAUGGUAAUAAGCUGACGGACAUGGUCCUAACCACGCAGCCAAGUCCUAAGUCAACAGAUCUUCUGUUGAUAUGGAUGCAGUUCACAGACUAAAUGUCGGUCGGGGAAGAUGUAUUCUUCUCAUAAGAUAUAGUCGGACCUCUCCUUAAUGGGAGCUAGCGGAUGAAGUGAUGCAACACUGGAGCCGCUGGGAACUAAUUUGUAUGCGAAAGUAUAUUGAUUAGUUUUGGAGUACUCGUGGUCG
In a few lines:
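The eight P1ex-region nucleotides of an intron in the knt kanamycin-resistance gene on pET-22b(+) were all randomised and the library put into E. coli BL21(DE3). Six replicate transformations were grown overnight at 37°C or 30°C on LB agar with or without 25 μg/mL kanamycin, together with 100 μg/mL carbenicillin, 50 μM IPTG and 0.2% rhamnose. Colonies were pooled and amplicon-sequenced on an Illumina HiSeq 2500. Fitness from DiMSum is the error-weighted combination of wild-type-normalised replicate fold changes, kanamycin over none.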

± gives the uncertainty stated by the source.

As to UUAGAGCAAUAUUACGUACG, the “self-splicing fitness (ln)” value is -0.844 ± 0.11 (30 °C) and -1.06 ± 0.17 (37 °C).
In the same order, the values of CUACAGCAAUAUUACGUGUA are -3.12 ± 0.14 and -2.93 ± 0.16.
In the same order, the values of CGCCAGCAAUAUUACGUUGC are -3.95 ± 0.29 and -2.45 ± 0.22.
In the same order, the values of UUAGAGCAAUAUUACGAUAU are -1.72 ± 0.18 and -1.54 ± 0.23.
With CGCUAGCAAUAUUACGCCAG, the “self-splicing fitness (ln)” value is, setting by setting: (30 °C) -3.09 ± 0.15; (37 °C) -2.81 ± 0.29.
With GGGGAGCAAUAUUACGGCAU, the “self-splicing fitness (ln)” value is, setting by setting: (30 °C) -1.9 ± 0.13; (37 °C) -1.53 ± 0.15.
The matching figures for AGGUAGCAAUAUUACGAUAU: -1.16 ± 0.014 and -0.423 ± 0.034.
As to CUUGAGCAAUAUUACGGGGA, the “self-splicing fitness (ln)” value was -3.27 ± 0.2 (30 °C) and -2.87 ± 0.28 (37 °C).
For the sequence UUGAAGCAAUAUUACGAAGA, the “self-splicing fitness (ln)” value runs as follows: (30 °C) -0.989 ± 0.11; (37 °C) -0.181 ± 0.17.
Consider GGAAAGCAAUAUUACGCUAC, for which the “self-splicing fitness (ln)” value was -1.91 ± 0.26 (30 °C) and -1.86 ± 0.33 (37 °C).
Turning to AGCGAGCAAUAUUACGCCCG, under “37 °C”, the “self-splicing fitness (ln)” value was -0.109 ± 0.42.
GGGCAGCAAUAUUACGCCCA: the “self-splicing fitness (ln)” value runs as follows: (30 °C) -2.18 ± 0.48; (37 °C) -1.26 ± 0.32.
As for GGUAAGCAAUAUUACGUUAC, the “self-splicing fitness (ln)” value was -3.08 ± 0.34 (30 °C) and -1.35 ± 0.31 (37 °C).
With ACCGAGCAAUAUUACGAAUG, the “self-splicing fitness (ln)” value runs as follows: (30 °C) -2.51 ± 0.16; (37 °C) -2.7 ± 0.44.
The matching figures for AUCAAGCAAUAUUACGGGAG: -1.16 ± 0.097 and -0.571 ± 0.099.
The matching figures for GUGAAGCAAUAUUACGAAAU: -0.716 ± 0.11 and -0.0167 ± 0.12.
The matching figures for AAGCAGCAAUAUUACGACAG: -3.04 ± 0.13 and -1.54 ± 0.12.
Consider UAGAAGCAAUAUUACGCUAC, for which the “self-splicing fitness (ln)” value (37 °C) was -2.23 ± 0.31.
Take GUUGAGCAAUAUUACGAGGA: the “self-splicing fitness (ln)” value (30 °C) was -2.48 ± 0.45.
Regarding UAUGAGCAAUAUUACGCAUU, the “self-splicing fitness (ln)” value runs as follows: (30 °C) -3.57 ± 0.25; (37 °C) -2.15 ± 0.22.
As to CUCGAGCAAUAUUACGGAUU, the “self-splicing fitness (ln)” value was -3.59 ± 0.19 (30 °C) and -2.98 ± 0.27 (37 °C).
For CGUAAGCAAUAUUACGAACC, the “self-splicing fitness (ln)” value is, setting by setting: (30 °C) -0.935 ± 0.24; (37 °C) -1.46 ± 0.24.
In the same order, the values of UCGAAGCAAUAUUACGGAGA are -2.69 ± 0.24 and -2.44 ± 0.32.
In the same order, the values of UUUUAGCAAUAUUACGUCAU are -3 ± 0.28 and -1.47 ± 0.29.
Take UGACAGCAAUAUUACGCGUA: the “self-splicing fitness (ln)” value reads like this: (30 °C) -0.95 ± 0.094; (37 °C) -0.353 ± 0.089.
As for CGAAAGCAAUAUUACGGCCA, the “self-splicing fitness (ln)” value runs as follows: (30 °C) -1.29 ± 0.14; (37 °C) -1.23 ± 0.099.
The matching figures for AGUCAGCAAUAUUACGCACC: -0.932 ± 0.12 and 0.383 ± 0.13.
In the same order, the values of UCUGAGCAAUAUUACGAUUU are -2.65 ± 0.22 and -1.31 ± 0.2.
Regarding CCUAAGCAAUAUUACGUCAC, for the setting “37 °C”, the “self-splicing fitness (ln)” value is -1.54 ± 0.49.
Consider AUCGAGCAAUAUUACGAUGA, for which the “self-splicing fitness (ln)” value (30 °C) is -3.37 ± 0.25 and the “self-splicing fitness (ln)” value (37 °C) was -1.86 ± 0.16.
Consider UAUGAGCAAUAUUACGGCUG, for which the “self-splicing fitness (ln)” value reads like this: (30 °C) -1.01 ± 0.15; (37 °C) -0.14 ± 0.19.
In the same order, the values of GUUUAGCAAUAUUACGUCCG are -2.86 ± 0.2 and -1.89 ± 0.29.
In the same order, the values of CGCAAGCAAUAUUACGUAGA are -2.6 ± 0.11 and -1.73 ± 0.13.
As to GGCCAGCAAUAUUACGGGCU, the “self-splicing fitness (ln)” value runs as follows: (30 °C) -2.4 ± 0.2; (37 °C) -3.16 ± 0.47.
In the same order, the values of AGUAAGCAAUAUUACGUAUA are -2.38 ± 0.42 and -1.97 ± 0.28.
The matching figures for ACACAGCAAUAUUACGUGGU: -4.33 ± 0.16 and -2.82 ± 0.11.
The matching figures for GUAGAGCAAUAUUACGUUUC: -1.87 ± 0.15 and -0.679 ± 0.17.
Turning to GGAAAGCAAUAUUACGGCGG, the “self-splicing fitness (ln)” value was -2.47 ± 0.19 (30 °C) and -1.45 ± 0.2 (37 °C).
In the same order, the values of UACGAGCAAUAUUACGGUUA are -0.815 ± 0.11 and 0.152 ± 0.11.
